T1: TGFβ2 (transforming growth factor beta 2) (Homo sapiens, UniProt P61812 SEQ:1-112)
T1 sequence: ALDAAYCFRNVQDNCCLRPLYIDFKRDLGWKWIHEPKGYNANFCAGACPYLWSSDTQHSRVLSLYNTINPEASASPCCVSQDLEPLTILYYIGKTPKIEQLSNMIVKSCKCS


What follows are binders tested against T1, TGFβ2 (transforming growth factor beta …) (assay: filter). Settings: chain copies: 2 (inferred, homodimer).

Row | Binder | binding signal
1 | GGCGUUGUUUAGUCGUAUGUAUAUACUAAGUCCGCUUGUCCCCA (ssRNA, 2'-F C and U) [21a-4Δ5',3'] | > 100 x Kd of 21a-4
2 | GGGGAGCGGCGUUGUUUAGUCGUAUGUAUAUACUAAGUCCGCUU (ssRNA, 2'-F C and U) [21a-4(ML-91)] | 1 x Kd of 21a-4

Target: T1, TGFβ2 (transforming growth factor beta …)
Experiment: filter
Settings: chain copies: 2 (inferred, homodimer)
Remark: another data set of the same source

Row | Binder | binding signal
3 | biased clone 30 (ssRNA, 2'-F C and U) RNA: GGGAGGACGAUGCGGUGAGGUUAUUACAGAGUCUGUAUAGCUGUACUCCCAGACGACUCGCCCGA | 2.4 x Kd of 21a-21
4 | biased clone 34 (ssRNA, 2'-F C and U) RNA: GGGAGGACGAUGCGGGGUGGUUAUUAGAGAGUCUGUAUAGCUCUACGCCCAGACGACUCGCCCGA | 1.7 x Kd of 21a-21
5 | biased clone 36 (ssRNA, 2'-F C and U) RNA: GGGAGGACGAUGCGGGGAGGAUAUUAUAGAGUCUGUAUAGCUAUACCCCCAGACGACUCGCCCGA | 1.9 x Kd of 21a-21
6 | biased clone 35 (ssRNA, 2'-F C and U) RNA: GGGAGGACGAUGCGGGGGGAGUAUUAAAGAGUCUGUAUAGCUUUACCCCCAGACGACUCGCCCGA | 0.8 x Kd of 21a-21

Target: T1, TGFβ2 (transforming growth factor beta …)
Experiment: filter
Settings: chain copies: 2 (inferred, homodimer)
Remark: another data set of the same source

Row | Binder | binding signal
7 | GGAGGUUAUUACAGAGUCUGUAUAGCUGUACUCC (ssRNA, 2'-F C and U; 2'-OMe at lowercase a,g of ggagGUUAUUACAGAGUCUGUAUAGCuGUACUCC; 3'-3' dT) [NX22356] | 1 x Kd of NX22284
8 | GGAGGUUAUUACAGAGUCUGUAUAGCUGUACUCC (ssRNA, 2'-F C and U; 2'-OMe at all purines except G20, A22, A24; 3'-3' dT) [NX22417] | 1 x Kd of NX22284
9 | GGAGGUUAUUACAGAGUCUGUAUAGCUGUACUCC (ssRNA, 2'-F C and U; 2'-OMe at lowercase a,g of GGAGgUUaUUaCAGAGUCUGUAUAGCUGUACUCC; 3'-3' dT) [NX22357] | 2 x Kd of NX22284
10 | GGAGGUUAUUACAGAGUCUGUAUAGCUGUACUCC (ssRNA, 2'-F C and U; 2'-OMe at lowercase a,g of ggaggUUaUUaCAGAGUCUGUAUAgCUgUaCucc; 3'-3' dT) [NX22377] | 1 x Kd of NX22284
11 | GGAGGUUAUUACAGAGUCUGUAUAGCUGUACUCC (ssRNA, 2'-F C and U; 2'-OMe at lowercase a,g of GGAGGUUAUUACagagUCUGUAUAGCUGUACUCC; 3'-3' dT) [NX22358] | 1 x Kd of NX22284
12 | GGAGGUUAUUACAGAGUCUGUAUAGCUGUACUCC (ssRNA, 2'-F C and U; 2'-OMe at lowercase a,g of GGAGGUUAUUACAGAGUCUGUAUAgCUgUaCUCC; 3'-3' dT) [NX22360] | 1 x Kd of NX22284
13 | GGAGGUUAUUACAGAGUCUGUAUAGCUGUACUCC (ssRNA, 2'-F C and U; 2'-OMe at all purines except G5, A8, A11, G20, A22, A24; 3'-3' dT) [NX22421] | 2 x Kd of NX22284
14 | GGAGGUUAUUACAGAGUCUGUAUAGCUGUACUCC (ssRNA, 2'-F C and U; 2'-OMe at all purines except A8, G20, A22, A24; 3'-3' dT) [NX22420] | 1 x Kd of NX22284
15 | GGGGUUAUUACAGAGUCUGUAUAGCUGUACCC (ssRNA, 2'-F C and U; 2'-OMe at lowercase a,g of gg-ggUUAUUaCagagUCUGUAUAgCUgUaC-CC; 3'-3' dT) [NX22427] | 0.3 x Kd of NX22284
16 | GGAGAUAUUACAGAGUCUGUAUAGCUGUACUCC (ssRNA, 2'-F C and U; 2'-OMe at lowercase a,g of ggaga-UAUUaCagagUCUgUAUAgCUgUaCucc with G of CUGUAUA 2'-OH; 3'-3' dT) [NX22426] | 1 x Kd of NX22284

Target: T1, TGFβ2 (transforming growth factor beta …)
Experiment: filter
Settings: chain copies: 2 (inferred, homodimer)
Remark: another data set of the same source

Row | Binder | binding signal
17 | GGGAGGAUGCGGAAGUAACGUUGUAGU (ssRNA, 2'-F C and U) [14i-1(ML-87)] | > 100 x Kd of 14i-1
18 | GGGAGGAGUAACGUUGUAGU (ssRNA, 2'-F C and U) [14i-1(ML-89)] | > 100 x Kd of 14i-1
19 | GGGAGGAUGCGGAAGUAACGUUGUAGUUCCUUC (ssRNA, 2'-F C and U) [14i-1(ML-86)] | > 100 x Kd of 14i-1
20 | GGAAGUAACGUUGUAGUAAAAUUCGUUCUCUCGGCAUUUGGCCA (ssRNA, 2'-F C and U) [14i-1Δ5',3'] | > 100 x Kd of 14i-1
21 | GGGAGGAUGCGGAAGUAACGUUGUAGUAAAAUUCCUUC (ssRNA, 2'-F C and U) [14i-1t5-41] | 1 x Kd of 14i-1
22 | GGGAGGAUGCGGAAGUAACGUUGUAGUAAAAU (ssRNA, 2'-F C and U) [14i-1t5-35] | > 100 x Kd of 14i-1
23 | GGGAGGAUGCGGAAGUAACGUUGUAGUAAAAUUCC (ssRNA, 2'-F C and U) [14i-1t5-38] | > 100 x Kd of 14i-1

These binders were tested against T1, TGFβ2 (transforming growth factor beta …) (assay: filter). Settings: chain copies: 2 (homodimer, stated).

Row | Binder | binding result
24 | 8.48 (ssRNA, 2'-F C and U; 2'-OH A and G) RNA: GGGAGGACGAUGCGGAAGUAACGUUGAAGUAAAAUUCGUUCUCUCGGUAUUGGCCAGACGACUCGCCCGA | binds
25 | 8.20 (ssRNA, 2'-F C and U; 2'-OH A and G) RNA: GGGAGGACGAUGCGGUCUCAACGAAGAACAUCGUUGGAUACUGUUUGUCCCGCCCCAGACGACUCGCCCGA | no binding
26 | 8.12 (ssRNA, 2'-F C and U; 2'-OH A and G) RNA: GGGAGGACGAUGCGGUCCAUCAACAAUCUUAUCAUUAUGUUUUUCCUUCCCGCCCCAGACGACUCGCCCGA | no binding
27 | 8.6 (ssRNA, 2'-F C and U; 2'-OH A and G) RNA: GGGAGGACGAUGCGGAAACCAAAAGACCACAUCUCCAUACUCACGCUCUGCCCCAGACGACUCGCCCGA | no binding
28 | 8.35 (ssRNA, 2'-F C and U; 2'-OH A and G) RNA: GGGAGGACGAUGCGGAUCCUAUCCUCUGAAUAUCAUUAAAUCAUCUUCUCCGCCCCAGACGACUCGCCCGA | no binding
29 | 8.28 (ssRNA, 2'-F C and U; 2'-OH A and G) RNA: GGGAGGACGAUGCGGAUGAGACCUAAUCAUCGAUCCGCUAUCUAAAACCUCACCCCAGACGACUCGCCCGA | no binding
30 | 8.40 (ssRNA, 2'-F C and U; 2'-OH A and G) RNA: GGGAGGACGAUGCGGCCCAUUAGUCCUCAUUAGUCCCCUGUGCCCCAGACGACUCGCCCGA | no binding
31 | 8.2 (ssRNA, 2'-F C and U; 2'-OH A and G) RNA: GGGAGGACGAUGCGGAAGUAACGUUUAAGUAAAAUUCGUUCUCUCGGUAUUUGGCCAGACGACUCGCCCGA | binds
32 | 8.9 (ssRNA, 2'-F C and U; 2'-OH A and G) RNA: GGGAGGACGAUGCGGAAGUAACGUUGAAGUAAAAUUCGUUCUCUCGGUAUUUGGCCAGACGACUCGCCCGA | binds
33 | 8.3 (ssRNA, 2'-F C and U; 2'-OH A and G) RNA: GGGAGGACGAUGCGGAAGUAACGUUGAAGUAAAAUUCGUUCUCUCGGCAUUUGGCCAGACGACUCGCCCGA | binds
34 | 8.8 (ssRNA, 2'-F C and U; 2'-OH A and G) RNA: GGGAGGACGAUGCGGAUAGAUCGGUCCGAUAAGUCUUUCAUCUUUACCUGGCCCCCAGACGACUCGCCCGA | no binding
35 | 8.23 (ssRNA, 2'-F C and U; 2'-OH A and G) RNA: GGGAGGACGAUGCGGAGACAUCUUUGUCUCGAUUAGUCAUGUUCCUUACCUGCCCCAGACGACUCGCCCGA | no binding
36 | 8.18 (ssRNA, 2'-F C and U; 2'-OH A and G) RNA: GGGAGGACGAUGCGGUCUACCCUUUAGCAGUAUUUGUUUCCAUCGUUGUUUGCCCCAGACGACUCGCCCGG | no binding
37 | 8.5 (ssRNA, 2'-F C and U; 2'-OH A and G) RNA: GGGAGGACGAUGCGGUCCUAACCAUCACAAUCUCAAUUCUUAUAUUUUCCCGCCCCAGACGACUCGCCCGA | no binding

What follows are binders tested against TGFβ1 (transforming growth factor beta 1) (Homo sapiens, UniProt P01137 SEQ:1-112) (assay: CD70 parent +++). Settings: chain copies: 2 (homodimer, inferred).
Sequence of TGFβ1 (transforming growth factor beta 1) (P01137 279-390): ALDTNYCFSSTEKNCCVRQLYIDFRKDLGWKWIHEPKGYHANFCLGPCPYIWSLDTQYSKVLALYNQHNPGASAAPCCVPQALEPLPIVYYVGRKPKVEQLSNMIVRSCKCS

Row | Binder | binding result
38 | GGGUGCCUUUUGCCUAGGUUGUGAUUUGUAACCUUCUGCCCA (ssRNA, 2'-OMe at 21, 23-24, 28) [ChD70-m3] | binds
39 | GGGUGCCUUUUGCCUAGGUUGUGAUUUGUAACCUUCUGCCCA (ssRNA, 2'-OMe at 1-3, 16-18, 21, 23-24, 28, 30, 42; 3'-3' U cap) [ChD70-m18] | binds
40 | GGGUGCCUUUUGCCUAGGUUGUGAUUUGUAACCUUCUGCCCA (ssRNA, 2'-OMe at 21, 23-24, 28, 38) [ChD70-m15] | binds
41 | GGGUGCCUUUUGCCUAGGUUGUGAUUUGUAACCUUCUGCCCA (ssRNA, 2'-OMe at 1, 21, 23-24, 28) [ChD70-m5] | binds
42 | GGGUGCCUUUUGCCUAGGUUGUGAUUUGUAACCUUCUGCCCA (ssRNA, 2'-OMe at 18, 21, 23-24, 28) [ChD70-m12] | binds
43 | GGGUGCCUUUUGCCUAGGUUGUGAUUUGUAACCUUCUGCCCA (ssRNA, 2'-OMe at 21, 23-24, 28, 31) [ChD70-m14] | binds
44 | GGGUGCCUUUUGCCUAGGUUGUGAUUUGUAACCUUCUGCCCA (ssRNA, 2'-OMe at 3, 21, 23-24, 28) [ChD70-m7] | binds
45 | GGGUGCCUUUUGCCUAGGUUGUGAUUUGUAACCUUCUGCCCA (ssRNA, 2'-OMe at 2, 21, 23-24, 28) [ChD70-m6] | binds
46 | GGGUGCCUUUUGCCUAGGUUGUGAUUUGUAACCUUCUGCCCA (ssRNA, 2'-OMe at 16, 21, 23-24, 28) [ChD70-m10] | binds
47 | GGGUGCCUUUUGCCUAGGUUGUGAUUUGUAACCUUCUGCCCA (ssRNA, 2'-OMe at 17, 21, 23-24, 28) [ChD70-m11] | binds
48 | GGGUGCCUUUUGCCUAGGUUGUGAUUUGUAACCUUCUGCCCA (ssRNA, 2'-OMe at 21, 23-24, 28, 42) [ChD70-m16] | binds

Source: patent US20040258656, “High affinity TGFbeta nucleic acid ligands and inhibitors” (published 2004)
